For the assay, the target named is T1, Human chorionic gonadotropin (human, UniProt P01215 25-116; P0DN86 21-165).
T1 construct: glycoprotein hormones alpha chain of human chorionic gonadotropin; beta subunit of human chorionic gonadotropin; Glycoprotein hormone; also called hCG; source: bought: Sigma-Aldrich
As to the kind of experiment: other fluorescence titration; 50 nM FITC-peptide first adsorbed on graphene oxide (2 ug/mL, 10 min, fluorescence quenched); protein added, 15 min at room temperature, PBS 20 mM pH 7.2; recovery of fluorescence (excitation 470 nm, emission 518 nm) on release of the peptide from GO. As to conditions: both partners purified.

Ends that are not written are not given here. * marks the point of attachment. FITC = O=C1OC2(c3ccc(O)cc3Oc3cc(O)ccc32)c2ccc(NC(=S)*)cc21

T1 sequence (P01215 25-116, chain 1 of 2, other chains not shown): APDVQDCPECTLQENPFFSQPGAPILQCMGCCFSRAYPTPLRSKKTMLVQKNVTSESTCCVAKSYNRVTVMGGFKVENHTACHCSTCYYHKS

B1: FITC-labeled hCG-specific binding peptide aptamer FITC-PPLRINRHILTR (peptide)
peptide: {FITC}-PPLRINRHILTR
notes: In the assay the peptide was first adsorbed onto graphene oxide (GO); also called peptide probe; source: synthetic peptide; bought: Synpeptide Co., Ltd
Turning to B1, the binding result is recorded as “binds”.
